Measured values published in article PMC13397619.

B1: NLV2 TCR alpha chain (CDR3α only) (parent)
chain: AGPMKTSYDKVI
partner: MLVPMVATV

Variants of: B1
Experiment: T-Switch: Jurkat TCRβ−/− cells expressing a CDR3 saturation-mutagenesis library, stained with two peptide-HLA-A*02:01 tetramers (original and novel peptide) plus anti-CD3, FACS-sorted into four gates, gDNA sequenced
Details: with HLA-A*02:01 with peptide … (NLV 3-1, the novel peptide), tetramers 1 µg/mL, 30 min on ice, SP, DP and SW gates expanded about 10 days between rounds ('two to three rounds of selection' in the Methods), gate SW: higher = more of the variant in the gate that binds the novel peptide and not the original one = switched binding. Fold enrichment of the CDR3 variant in one FACS gate of a two-tetramer stain, unresolved parent, parent is a CDR3 fragment, scale: fold enrichment, numbering: sequential-on-construct, sequence starts at 1

| Variant | enrichment |
| --- | --- |
| […] (CDR3 as printed); K5L derived by comparing it with the table's wild-type CDR3 AGPMKTSYDKVI | 0 |
| […] (CDR3 as printed); A1K derived by comparing it with the table's wild-type CDR3 AGPMKTSYDKVI | 1.01 |
| […] (CDR3 as printed); S7F derived by comparing it with the table's wild-type CDR3 AGPMKTSYDKVI | 0 |
| […] (CDR3 as printed); K5H derived by comparing it with the table's wild-type CDR3 AGPMKTSYDKVI | 0 |
| […] (CDR3 as printed); G2Q derived by comparing it with the table's wild-type CDR3 AGPMKTSYDKVI | 0 |
| […] (CDR3 as printed); D9V derived by comparing it with the table's wild-type CDR3 AGPMKTSYDKVI | 0 |
| […] (CDR3 as printed); P3L derived by comparing it with the table's wild-type CDR3 AGPMKTSYDKVI | 0 |
| […] (CDR3 as printed); P3H derived by comparing it with the table's wild-type CDR3 AGPMKTSYDKVI | 0 |
| […] (CDR3 as printed); Y8C derived by comparing it with the table's wild-type CDR3 AGPMKTSYDKVI | 0 |
| […] (CDR3 as printed); K10H derived by comparing it with the table's wild-type CDR3 AGPMKTSYDKVI | 0 |
| […] (CDR3 as printed); P3Q derived by comparing it with the table's wild-type CDR3 AGPMKTSYDKVI | 0 |
| […] (CDR3 as printed); A1Y derived by comparing it with the table's wild-type CDR3 AGPMKTSYDKVI | 0.533 |
| […] (CDR3 as printed); K10L derived by comparing it with the table's wild-type CDR3 AGPMKTSYDKVI | 0 |
| […] (CDR3 as printed); K10P derived by comparing it with the table's wild-type CDR3 AGPMKTSYDKVI | 0 |
| […] (CDR3 as printed); S7M derived by comparing it with the table's wild-type CDR3 AGPMKTSYDKVI | 0 |
| […] (CDR3 as printed); A1W derived by comparing it with the table's wild-type CDR3 AGPMKTSYDKVI | 0 |
| […] (CDR3 as printed); K5T derived by comparing it with the table's wild-type CDR3 AGPMKTSYDKVI | 0 |
| […] (CDR3 as printed); K5N derived by comparing it with the table's wild-type CDR3 AGPMKTSYDKVI | 0 |
| […] (CDR3 as printed); K5C derived by comparing it with the table's wild-type CDR3 AGPMKTSYDKVI | 0 |
| […] (CDR3 as printed); I12Y derived by comparing it with the table's wild-type CDR3 AGPMKTSYDKVI | 0 |
| […] (CDR3 as printed); G2L derived by comparing it with the table's wild-type CDR3 AGPMKTSYDKVI | 0 |
| […] (CDR3 as printed); P3R derived by comparing it with the table's wild-type CDR3 AGPMKTSYDKVI | 0 |
| […] (CDR3 as printed); M4Q derived by comparing it with the table's wild-type CDR3 AGPMKTSYDKVI | 0 |

| Variant | enrichment |
| --- | --- |
| […] (CDR3 as printed); V11N derived by comparing it with the table's wild-type CDR3 AGPMKTSYDKVI | 0 |
| […] (CDR3 as printed); I12D derived by comparing it with the table's wild-type CDR3 AGPMKTSYDKVI | 0 |
| […] (CDR3 as printed); V11Q derived by comparing it with the table's wild-type CDR3 AGPMKTSYDKVI | 0 |
| […] (CDR3 as printed); I12K derived by comparing it with the table's wild-type CDR3 AGPMKTSYDKVI | 0 |
| […] (CDR3 as printed); K5M derived by comparing it with the table's wild-type CDR3 AGPMKTSYDKVI | 0 |
| […] (CDR3 as printed); D9L derived by comparing it with the table's wild-type CDR3 AGPMKTSYDKVI | 0 |
| […] (CDR3 as printed); M4N derived by comparing it with the table's wild-type CDR3 AGPMKTSYDKVI | 0 |
| […] (CDR3 as printed); I12Q derived by comparing it with the table's wild-type CDR3 AGPMKTSYDKVI | 0 |
| […] (CDR3 as printed); G2R derived by comparing it with the table's wild-type CDR3 AGPMKTSYDKVI | 0 |
| […] (CDR3 as printed); G2C derived by comparing it with the table's wild-type CDR3 AGPMKTSYDKVI | 0 |
| […] (CDR3 as printed); Y8F derived by comparing it with the table's wild-type CDR3 AGPMKTSYDKVI | 0 |
| […] (CDR3 as printed); G2E derived by comparing it with the table's wild-type CDR3 AGPMKTSYDKVI | 0 |
| […] (CDR3 as printed); K10V derived by comparing it with the table's wild-type CDR3 AGPMKTSYDKVI | 0 |
| […] (CDR3 as printed); G2M derived by comparing it with the table's wild-type CDR3 AGPMKTSYDKVI | 0 |
| […] (CDR3 as printed); K5E derived by comparing it with the table's wild-type CDR3 AGPMKTSYDKVI | 0 |
| […] (CDR3 as printed); T6D derived by comparing it with the table's wild-type CDR3 AGPMKTSYDKVI | 0 |
| […] (CDR3 as printed); T6Q derived by comparing it with the table's wild-type CDR3 AGPMKTSYDKVI | 0 |
| […] (CDR3 as printed); G2S derived by comparing it with the table's wild-type CDR3 AGPMKTSYDKVI | 0 |
| […] (CDR3 as printed); I12V derived by comparing it with the table's wild-type CDR3 AGPMKTSYDKVI | 0 |
| […] (CDR3 as printed); T6R derived by comparing it with the table's wild-type CDR3 AGPMKTSYDKVI | 0 |
| […] (CDR3 as printed); S7I derived by comparing it with the table's wild-type CDR3 AGPMKTSYDKVI | 0 |
| […] (CDR3 as printed); P3T derived by comparing it with the table's wild-type CDR3 AGPMKTSYDKVI | 0 |
| […] (CDR3 as printed); M4T derived by comparing it with the table's wild-type CDR3 AGPMKTSYDKVI | 0 |

| Variant | enrichment |
| --- | --- |
| […] (CDR3 as printed); K10I derived by comparing it with the table's wild-type CDR3 AGPMKTSYDKVI | 0 |
| […] (CDR3 as printed); K10G derived by comparing it with the table's wild-type CDR3 AGPMKTSYDKVI | 0 |
| […] (CDR3 as printed); G2N derived by comparing it with the table's wild-type CDR3 AGPMKTSYDKVI | 0 |
| […] (CDR3 as printed); Y8G derived by comparing it with the table's wild-type CDR3 AGPMKTSYDKVI | 0 |
| […] (CDR3 as printed); Y8T derived by comparing it with the table's wild-type CDR3 AGPMKTSYDKVI | 0 |
| […] (CDR3 as printed); K10Y derived by comparing it with the table's wild-type CDR3 AGPMKTSYDKVI | 0 |
| […] (CDR3 as printed); V11D derived by comparing it with the table's wild-type CDR3 AGPMKTSYDKVI | 0 |
| […] (CDR3 as printed); T6M derived by comparing it with the table's wild-type CDR3 AGPMKTSYDKVI | 0 |
| […] (CDR3 as printed); Y8K derived by comparing it with the table's wild-type CDR3 AGPMKTSYDKVI | 0 |
| […] (CDR3 as printed); M4K derived by comparing it with the table's wild-type CDR3 AGPMKTSYDKVI | 0 |
| […] (CDR3 as printed); V11T derived by comparing it with the table's wild-type CDR3 AGPMKTSYDKVI | 0 |
| […] (CDR3 as printed); A1N derived by comparing it with the table's wild-type CDR3 AGPMKTSYDKVI | 0 |
| […] (CDR3 as printed); V11R derived by comparing it with the table's wild-type CDR3 AGPMKTSYDKVI | 0 |
| […] (CDR3 as printed); T6H derived by comparing it with the table's wild-type CDR3 AGPMKTSYDKVI | 0 |
| […] (CDR3 as printed); V11F derived by comparing it with the table's wild-type CDR3 AGPMKTSYDKVI | 0 |
| […] (CDR3 as printed); P3S derived by comparing it with the table's wild-type CDR3 AGPMKTSYDKVI | 0 |
| […] (CDR3 as printed); D9P derived by comparing it with the table's wild-type CDR3 AGPMKTSYDKVI | 0 |
| […] (CDR3 as printed); G2T derived by comparing it with the table's wild-type CDR3 AGPMKTSYDKVI | 0 |
| […] (CDR3 as printed); P3N derived by comparing it with the table's wild-type CDR3 AGPMKTSYDKVI | 0 |
| […] (CDR3 as printed); M4G derived by comparing it with the table's wild-type CDR3 AGPMKTSYDKVI | 0 |
| […] (CDR3 as printed); T6K derived by comparing it with the table's wild-type CDR3 AGPMKTSYDKVI | 0.282 |
| […] (CDR3 as printed); P3A derived by comparing it with the table's wild-type CDR3 AGPMKTSYDKVI | 0 |
| […] (CDR3 as printed); T6F derived by comparing it with the table's wild-type CDR3 AGPMKTSYDKVI | 0 |
